Test results published in article PMC11187062, “Structure of human DPPA3 bound to the UHRF1 PHD finger reveals its functional and structural differences from mouse DPPA3” (Communications Biology, 2024).
Positions count from the first letter of the chain named. Numbers in names are those of the source. Where “and” joins values, the source holds several entries; their conditions need not be identical. Identical values can stand only once.

B1: K95P substituted hDPPA3_(81-118) (peptide, UniProt Q6W0C5 81-118, looked up)
chain: SRRGVRTLLSVQREPMARLRYMLLGGVRTHERRPTNKE
notes: also called K95P mutant of hDPPA3; source: bought: Toray Research Center (Tokyo, Japan)
B2: human DPPA3, residues 81-118 (domain or fragment)
chain: B1 chain with P15K
notes: also called hDPPA3 WT; source: E. coli BL21 (DE3), His-Ub fusion, purified (Ni Sepharose, YUH1 cleavage, HiTrap SP, Superdex 75)
B3: human DPPA3, residues 81–118 (recombinant) (domain or fragment)
chain: B1 chain with P15K
notes: Used for SAXS, NMR, CD, ITC and ubiquitination experiments; also called hDPPA3; source: E. coli BL21 (DE3), His-Ub fusion, purified (Ni Sepharose, YUH1 cleavage, HiTrap SP, Superdex 75)
B4: hDPPA3_(81-118) R86A/T87A (domain or fragment, human, UniProt Q6W0C5 81-118, looked up)
chain: B1 chain with R6A, T7A, P15K
notes: source: E. coli BL21 (DE3), His-Ub fusion, purified by the same protocol as the wild type
B5: hDPPA3_(81-118) T87A (domain or fragment, human, UniProt Q6W0C5 81-118, looked up)
chain: B1 chain with T7A, P15K
notes: as for B4
B6: human DPPA3, residues 81-118, L88A/V91A (domain or fragment, UniProt Q6W0C5 81-118, looked up)
chain: B1 chain with L8A, V11A, P15K
notes: DPPA3, human, with L88A and V91A; named only in the sheet; also called hDPPA3_mutant2_L88AV91A
B7: hDPPA3_(81-118) R93P/A97P (domain or fragment, human, UniProt Q6W0C5 81-118, looked up)
chain: B1 chain with R13P, P15K, A17P
notes: as for B4
B8: hDPPA3_(81-118) R86A (domain or fragment, human, UniProt Q6W0C5 81-118, looked up)
chain: B1 chain with R6A, P15K
notes: as for B4
B9: human DPPA3, residues 81-118, M96A/L99A (domain or fragment, UniProt Q6W0C5 81-118, looked up)
chain: B1 chain with P15K, M16A, L19A
notes: also called hDPPA3_mutant3_M96AL99A; source: E. coli BL21 (DE3), His-Ub fusion, purified by the same protocol as the wild type
B10: hDPPA3 residues 81-118, R98A/M102A (peptide, UniProt Q6W0C5 81-118, looked up)
chain: B1 chain with P15K, R18A, M22A
notes: source: E. coli BL21 (DE3), purified (Ni Sepharose, His-Ub removed by YUH1, HiTrap SP, Superdex 75)
B11: hDPPA3 residues 81-118, M96A/L99A (peptide, UniProt Q6W0C5 81-118, looked up)
chain: B1 chain with P15K, M16A, L19A
notes: as for B10
B12: human DPPA3, residues 81-118, R98A/M102A (domain or fragment, UniProt Q6W0C5 81-118, looked up)
chain: B1 chain with P15K, R18A, M22A
notes: also called hDPPA3_mutant1_R98AM102A; source: E. coli BL21 (DE3), His-Ub fusion, purified by the same protocol as the wild type
B13: human DPPA3, residues 81-118, R93P/A97P (domain or fragment, UniProt Q6W0C5 81-118, looked up)
chain: B1 chain with R13P, P15K, A17P
notes: also called hDPPA3_mutant4_R93PA97P; source: E. coli BL21 (DE3), His-Ub fusion, purified by the same protocol as the wild type

How the values were obtained:
Settings in all cases: both partners purified
[1] = biological target: T1, human UHRF1 PHD finger (residues 299-366) (human, UniProt Q96T88 299-366); assay: ITC; Microcal PEAQ-ITC, 293 K, 10 mM HEPES pH 7.5, 150 mM NaCl, 0.25 mM TCEP; one-site model; n = 3
T1 construct: UHRF1 (ubiquitin-like PHD and RING finger domain-containing protein 1), human, PHD finger, residues 299-366; also called hPHD; hUHRF1 PHD finger; source: E. coli, expressed as a GST-fusion protein, purified (glutathione Sepharose 4B, HiTrap Q, Superdex 75)
T1 sequence (looked up): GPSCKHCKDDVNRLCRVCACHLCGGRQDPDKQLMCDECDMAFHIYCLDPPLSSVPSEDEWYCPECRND

[2] = biological target: T2, human UHRF1 PHD finger, residues 299-366 (human, UniProt Q96T88 299-366); assay: ITC; Microcal PEAQ-ITC, 293 K, 10 mM HEPES pH 7.5, 150 mM NaCl, 0.25 mM TCEP, one-site model; which partner was titrated is not stated; single titrations and their means
T2 construct: UHRF1 (ubiquitin-like PHD and RING finger domain-containing protein 1), human, PHD finger, residues 299-366; also called hPHD; hUHRF1 PHD finger; source: E. coli, expressed as a GST-fusion protein, purified (glutathione Sepharose 4B, HiTrap Q, Superdex 75)
T2 sequence (looked up): T1 sequence (looked up)

[3] = biological target: T3, human UHRF1 PHD finger, residues 299-366, M332A (human, UniProt Q96T88 299-366, M332A); assay: as above
T3 construct: UHRF1, human, PHD finger, residues 299-366, with M332A; also called hPHD M332A; source: E. coli, expressed as a GST-fusion protein, purified
T3 sequence (looked up): T1 sequence (looked up) with M34A

hPHD M332A = biological target: T4, hPHD M332A (human, UniProt Q96T88 299-366, M332A); assay: ITC; Microcal PEAQ-ITC, 293 K, 10 mM HEPES pH 7.5, 150 mM NaCl, 0.25 mM TCEP; one-site model; at least three independent titrations
T4 construct: UHRF1, human, PHD finger, residues 299-366; also called M332A hPHD mutation; source: E. coli, site-directed mutant of hPHD; purification of the hPHD mutants not described separately
T4 sequence (looked up): T1 sequence (looked up) with M34A

[4] = biological target: T5, human UHRF1 PHD finger, residues 299–366 (human, UniProt Q96T88 299-366); assay: as above
T5 construct: UHRF1 (ubiquitin-like PHD and RING finger domain-containing protein 1), human, PHD finger, residues 299-366; 15N- or 13C,15N-labelled for NMR; also called hPHD; hUHRF1 PHD finger; source: E. coli, expressed as a GST-fusion protein, purified (glutathione Sepharose 4B, HiTrap Q, Superdex 75)
T5 sequence (looked up): T1 sequence (looked up)

[5] = biological target: T5, human UHRF1 PHD finger, residues 299–366; assay: SEC-SAXS; 12 mg/ml hPHD:hDPPA3_(81-118) complex on Superdex 200 Increase 5/150 GL, 20 mM Tris-HCl pH 7.5, 150 mM NaCl, 2 mM DTT, 10 µM zinc acetate, 5% glycerol, 20 °C
[6] = biological target: T2, human UHRF1 PHD finger, residues 299-366; assay: ITC; Microcal PEAQ-ITC, 293 K, 10 mM HEPES pH 7.5, 150 mM NaCl, 0.25 mM TCEP, one-site model; which partner was titrated is not stated; single titrations and their means; remark: listed apart in the source
[7] = biological target: T1, human UHRF1 PHD finger (residues …); assay: ITC; Microcal PEAQ-ITC, 293 K, 10 mM HEPES pH 7.5, 150 mM NaCl, 0.25 mM TCEP; one-site model; n = 3; remark: listed apart in the source

Binder | Kd [4] [nM] | Kd [6] | also measured
B1 |  |  | Kd [1]: 1260 nM
B2 |  |  | Kd [2]: 918 nM and 804 nM and 921 nM and 831 nM; Kd [3]: 9490 nM and 6150 nM and 8570 nM
B3 | 868 |  | Kd (hPHD M332A): 8070 nM; stoichiometry N [5]: 1
B4 | > 85000 |  | 
B5 | 16500 |  | 
B6 |  | 2890 nM and 1670 nM and 1870 nM | 
B7 | 9390 |  | 
B8 | 20000 |  | 
B9 |  | 355 nM and 347 nM | 
B10 |  |  | Kd [7]: 352 nM
B11 |  |  | Kd [7]: 550 nM
B12 |  | 639 nM and 460 nM and 552 nM | 
B13 |  | 11200 nM and 9620 nM and 7360 nM | 
